Source: article PMC2173853 (The Journal of Cell Biology, 2002)

B1: GST–Sed5p (entire cytosolic region) (domain or fragment)
chain: MNIKDRTSEFQQSVLSYKKRNKNFREQQRERLQEKESENFANNTTGNGKSVSEFQKKASGIAHEISSTAQLLSKLAVLAKRKPMFNDNPVEIAELSFLIKRKIYAIEQSLVQLSQLKKTDVNGNTSNQSSKQPSAVQHSKNVVNLLNTQMKNISGSFKDVLEERQRLEMANKDRWQKLTTDTGHAPADDQTQSNHAADLTTYNNSNPFMTSLLDESSEKNNNSSNQGELSFPQNDSQLMLMEEGQLSNNVYLQERNRAVETIESTIQEVGNLFQQLASMVQEQGEVIQRIDANVDDIDLNISGAQRELLKYFDRIKSNRWLAAK

Experiments:
Experiment in all cases: pull-down
[1] = molecular target: B1
[2] = molecular target: T1, heterodimeric GST–Sed5p–His10-Sly1p complex bound to beads (S. cerevisiae, UniProt Q01590;P22213)
T1 sequence 1: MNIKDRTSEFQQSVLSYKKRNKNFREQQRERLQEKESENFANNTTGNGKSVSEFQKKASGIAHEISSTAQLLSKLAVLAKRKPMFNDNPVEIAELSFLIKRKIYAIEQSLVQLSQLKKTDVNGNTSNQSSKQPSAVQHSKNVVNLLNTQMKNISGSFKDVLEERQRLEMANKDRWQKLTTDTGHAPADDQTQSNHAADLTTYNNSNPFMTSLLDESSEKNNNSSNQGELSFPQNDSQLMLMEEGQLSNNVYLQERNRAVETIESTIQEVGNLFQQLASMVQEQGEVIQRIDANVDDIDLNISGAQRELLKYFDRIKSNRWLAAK
T1 sequence 2: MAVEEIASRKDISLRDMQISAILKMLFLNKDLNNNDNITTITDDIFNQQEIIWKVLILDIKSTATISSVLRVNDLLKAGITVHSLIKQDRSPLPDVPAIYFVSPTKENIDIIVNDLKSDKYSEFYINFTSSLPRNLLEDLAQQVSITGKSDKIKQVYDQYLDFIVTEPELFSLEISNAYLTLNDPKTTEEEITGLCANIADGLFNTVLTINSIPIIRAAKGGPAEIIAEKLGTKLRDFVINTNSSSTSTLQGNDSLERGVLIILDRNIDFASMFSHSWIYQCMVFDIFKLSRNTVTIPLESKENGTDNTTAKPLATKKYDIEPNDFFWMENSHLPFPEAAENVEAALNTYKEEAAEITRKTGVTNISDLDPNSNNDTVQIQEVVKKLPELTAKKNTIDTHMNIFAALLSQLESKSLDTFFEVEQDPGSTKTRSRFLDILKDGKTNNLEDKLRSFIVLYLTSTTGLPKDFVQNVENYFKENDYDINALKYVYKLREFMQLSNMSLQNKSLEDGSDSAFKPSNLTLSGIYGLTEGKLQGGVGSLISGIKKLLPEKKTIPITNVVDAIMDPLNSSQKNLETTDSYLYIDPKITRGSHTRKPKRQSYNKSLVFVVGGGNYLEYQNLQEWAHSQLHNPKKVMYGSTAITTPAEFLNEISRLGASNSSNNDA

[3] = molecular target: T2, GST–Ykt6p (amino acids 1–195) (S. cerevisiae, UniProt P36015 1-195)
T2 sequence: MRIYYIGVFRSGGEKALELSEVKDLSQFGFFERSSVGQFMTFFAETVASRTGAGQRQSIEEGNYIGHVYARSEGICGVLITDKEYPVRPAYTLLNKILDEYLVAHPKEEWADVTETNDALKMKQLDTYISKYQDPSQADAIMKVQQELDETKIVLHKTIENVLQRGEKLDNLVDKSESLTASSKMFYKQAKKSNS

[4] = molecular target: T3, His10-Sly1p (NH2-terminally His10-tagged full-length Sly1p) (S. cerevisiae, UniProt P22213 1-666)
T3 sequence: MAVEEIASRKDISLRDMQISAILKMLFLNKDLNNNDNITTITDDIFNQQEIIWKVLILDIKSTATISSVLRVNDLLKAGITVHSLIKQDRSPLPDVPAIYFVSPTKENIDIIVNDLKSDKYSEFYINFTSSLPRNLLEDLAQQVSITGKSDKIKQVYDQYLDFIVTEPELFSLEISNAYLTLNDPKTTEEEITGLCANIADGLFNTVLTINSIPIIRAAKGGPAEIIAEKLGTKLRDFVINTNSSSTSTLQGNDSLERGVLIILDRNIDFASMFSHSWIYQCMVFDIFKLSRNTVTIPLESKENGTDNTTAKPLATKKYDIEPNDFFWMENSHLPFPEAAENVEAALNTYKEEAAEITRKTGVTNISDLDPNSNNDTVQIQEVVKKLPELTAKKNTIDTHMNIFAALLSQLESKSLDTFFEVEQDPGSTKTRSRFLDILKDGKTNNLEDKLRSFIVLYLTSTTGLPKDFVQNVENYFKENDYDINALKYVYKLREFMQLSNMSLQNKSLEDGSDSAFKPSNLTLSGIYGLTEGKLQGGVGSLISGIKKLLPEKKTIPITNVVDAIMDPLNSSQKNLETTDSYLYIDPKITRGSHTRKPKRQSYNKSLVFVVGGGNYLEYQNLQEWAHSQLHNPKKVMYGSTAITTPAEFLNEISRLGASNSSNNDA

Row | Binder | stoichiometry N [1] [per Sed5p] | stoichiometry N [2] [per Sed5p] | binding result [3] | binding result [4]
1 | His6-Sec22p (amino acids 1–188) (domain or fragment) MIKSTLIYREDGLPLCTSVDNENDPSLFEQKQKVKIVVSRLTPQSATEATLESGSFEIHYLKKSMVYYFVICESGYPRNLAFSYLNDIAQEFEHSFANEYPKPTVRPYQFVNFDNFLQMTKKSYSDKKVQDNLDQLNQELVGVKQIMSKNIEDLLYRGDSLDKMSDMSSSLKETSKRYRKSAQKINFD | 1.3 | 1.4 | binds | –
2 | B1 | – | – | – | binds
